In patent US20170253656A1 (SUTRO BIOPHARMA, published 2017) one finds Kd, koff and kon data, which are given here for 17 molecules.

What is called Kd is the free concentration of one partner at which half of the binding sites on the other are occupied at equilibrium, for simple one-to-one binding. Low values mean a tighter complex, high ones a looser complex. A word on the koff: it is the rate constant with which the complex falls apart. A high value points to a short-lived complex. By kon is commonly meant a measure of how fast the partners come together.

This assay deals with T1, hu-CD74 antigen (R&D SYSTEMS catalog #3590-CD-050) (human, UniProt P04233-2 73-232, limits assumed).
T1 construct: Bought antigen; also called rhCD74; human CD74
T1 sequence (looked up): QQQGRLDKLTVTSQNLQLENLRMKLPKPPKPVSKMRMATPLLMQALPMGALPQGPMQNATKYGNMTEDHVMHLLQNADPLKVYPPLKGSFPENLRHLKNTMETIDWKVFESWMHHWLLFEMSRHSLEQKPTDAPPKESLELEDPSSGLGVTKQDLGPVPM
In words: SPR (Biacore T200), IgG captured on anti-human Fc, rhCD74 analyte. The procedure:
Kinetic binding experiments were performed at 25° C. using 1×HBS-EP+buffer. Kinetic data was collected by injecting test and control antibodies at concentrations of 10, 5 and 2.5 μg/mL for 12 s at a flow rate of 10 μl/min on flow cells 2, 3 and 4 respectively, followed by a buffer wash for 30 s at the same flow rate. Kinetic characterization of antibody samples was carried out with 8 concentrations of a 1:2 dilution series of rhCD74 antigen (R&D Systems) and 2 injections of 0 nM antigen (buffer only). […] Between each ligand capture and analyte binding cycle, regeneration was carried out using 2 injections of 3M MgCl₂ for 30 seconds at 30 μL/min, followed by a 30 second buffer wash step.
(SPR reads the build-up and loss of mass on a sensor chip optically.)

B1: HC 1251_A06 (wt)/LC 1337_A07 (wt) (antibody, human IgG1, kappa, V domains shown)
VH: QVQLVESGGGVVQPGRSLRLSCAASGFDFSSYGMHWVRQAPDKGLEWVAVIWDDGSDRYYADSVKGRFTISRDNSKNTLYLQMNSLRAEDTAVYYCARGGTRVLGAIHGTDVWGQGTTVTVSS
VL: DIQMTQSPSSLSASVGDRVTITCRASQGISSWVAWYQQKPEKAPKSLIYGASRLQSGVPSRFSGSGSGTDFTLTISSLQPEDFATYYCQQYHTYPLTFGGGTKVEIKR
notes: IgG format
The molecule B1 displayed a Kd of 0.168 nM, a koff of 0.0001 s⁻¹ and a kon of 598000 M⁻¹ s⁻¹.

B2: HC 1251_A06 (g)/LC 1337_A07 (wt) (antibody, human IgG1, kappa, V domains shown)
VH: QVQLVESGGGVVQPGRSLRLSCAASGFDFSSYGMHWVRQAPGKGLEWVAVIWDDGSDRYYADSVKGRFTISRDNSKNTLYLQMNSLRAEDTAVYYCARGGTRVLGAIHGTDVWGQGTTVTVSS
VL: DIQMTQSPSSLSASVGDRVTITCRASQGISSWVAWYQQKPEKAPKSLIYGASRLQSGVPSRFSGSGSGTDFTLTISSLQPEDFATYYCQQYHTYPLTFGGGTKVEIKR
notes: IgG format
Turning to B2, binding was characterised by a dissociation constant (Kd) of 0.166 nM, the koff was 9.4e-05 s⁻¹ and the kon turned out to be 568000 M⁻¹ s⁻¹.

B3: HC 1251_A06 (wt)/LC 1337_A09 (g) (antibody, human IgG1, kappa, V domains shown)
VH: QVQLVESGGGVVQPGRSLRLSCAASGFDFSSYGMHWVRQAPDKGLEWVAVIWDDGSDRYYADSVKGRFTISRDNSKNTLYLQMNSLRAEDTAVYYCARGGTRVLGAIHGTDVWGQGTTVTVSS
VL: DIQMTQSPSSVSASVGDRVTITCRASQGIGSWLAWYQQKPGKAPKLLIYAADRLQSGVPSRFSGSGSGTDFTLTISSLQPEDFATYYCQQYHTYPLTFGGGTKVEIKR
notes: IgG format
B3 yielded a Kd of 0.18 nM, a koff of 0.00011 s⁻¹ and an on-rate constant (kon) of 610000 M⁻¹ s⁻¹.

B4: HC 1251_A06 (g)/LC 1337_A10 (g) (antibody, human IgG1, kappa, V domains shown)
VH: QVQLVESGGGVVQPGRSLRLSCAASGFDFSSYGMHWVRQAPGKGLEWVAVIWDDGSDRYYADSVKGRFTISRDNSKNTLYLQMNSLRAEDTAVYYCARGGTRVLGAIHGTDVWGQGTTVTVSS
VL: DIQMTQSPSSVSASVGDRVTITCRASQGISSWVAWYQQKPGKAPKLLIYGSSRLQSGVPSRFSGSGSGTDFTLTISSLQPEDFATYYCQQYNTYPLTFGGGTKVEIKR
notes: IgG format
B4 had a Kd of 0.389 nM, a koff of 0.000148 s⁻¹ and a kon of 380000 M⁻¹ s⁻¹.

B5: HC 1251_A06 (wt)/LC 1337_A07 (g) (antibody, human IgG1, kappa, V domains shown)
VH: QVQLVESGGGVVQPGRSLRLSCAASGFDFSSYGMHWVRQAPDKGLEWVAVIWDDGSDRYYADSVKGRFTISRDNSKNTLYLQMNSLRAEDTAVYYCARGGTRVLGAIHGTDVWGQGTTVTVSS
VL: DIQMTQSPSSVSASVGDRVTITCRASQGISSWVAWYQQKPGKAPKLLIYGASRLQSGVPSRFSGSGSGTDFTLTISSLQPEDFATYYCQQYHTYPLTFGGGTKVEIKR
notes: IgG format
Regarding B5, the affinity, expressed as Kd, was 0.205 nM; the dissociation rate constant (koff) stood at 0.000136 s⁻¹; the kon was determined as 660000 M⁻¹ s⁻¹.

B6: HC 1251_A06 (wt)/LC 1337_A10 (wt) (antibody, human IgG1, kappa, V domains shown)
VH: QVQLVESGGGVVQPGRSLRLSCAASGFDFSSYGMHWVRQAPDKGLEWVAVIWDDGSDRYYADSVKGRFTISRDNSKNTLYLQMNSLRAEDTAVYYCARGGTRVLGAIHGTDVWGQGTTVTVSS
VL: DIQMTQSPSSLSASVGDRVTITCRASQGISSWVAWYQQKPEKAPKSLIYGSSRLQSGVPSRFSGSGSGTDFTLTISSLQPEDFATYYCQQYNTYPLTFGGGTKVEIKR
notes: IgG format
In the case of B6, the Kd was 0.205 nM, the koff was 0.000174 s⁻¹ and the kon was 847000 M⁻¹ s⁻¹.

B7: HC 1251_A06 (g)/LC 1337_A09 (wt) (antibody, human IgG1, kappa, V domains shown)
VH: QVQLVESGGGVVQPGRSLRLSCAASGFDFSSYGMHWVRQAPGKGLEWVAVIWDDGSDRYYADSVKGRFTISRDNSKNTLYLQMNSLRAEDTAVYYCARGGTRVLGAIHGTDVWGQGTTVTVSS
VL: DIQMTQSPSSLSASVGDRVTITCRASQGIGSWLAWYQQKPEKAPKSLIYAADRLQSGVPSRFSGSGSGTDFTLTISSLQPEDFATYYCQQYHTYPLTFGGGTKVEIKR
notes: IgG format
Regarding B7, the Kd was 0.189 nM, the koff was 8.63e-05 s⁻¹ and the kon was 457000 M⁻¹ s⁻¹.

B8: HC 1251_A06 (g)/LC 1275_C10 (wt) (antibody, human IgG1, kappa, V domains shown)
VH: QVQLVESGGGVVQPGRSLRLSCAASGFDFSSYGMHWVRQAPGKGLEWVAVIWDDGSDRYYADSVKGRFTISRDNSKNTLYLQMNSLRAEDTAVYYCARGGTRVLGAIHGTDVWGQGTTVTVSS
VL: DIQMTQSPSSLSASVGDRVTITCRASQGVSSWLAWYQQKPEKAPKSLIYSARYLQSGVPSRFSGSGSGTDFTLTISSLQPEDFATYYCQQYNLYPLTFGGGTKVEIKR
notes: IgG format
B8 showed a Kd of 0.341 nM, a koff of 0.000177 s⁻¹ and a kon of 520000 M⁻¹ s⁻¹.

B9: HC 1251_A06 (g)/LC 1275_C10 (g) (antibody, human IgG1, kappa, V domains shown)
VH: QVQLVESGGGVVQPGRSLRLSCAASGFDFSSYGMHWVRQAPGKGLEWVAVIWDDGSDRYYADSVKGRFTISRDNSKNTLYLQMNSLRAEDTAVYYCARGGTRVLGAIHGTDVWGQGTTVTVSS
VL: DIQMTQSPSSVSASVGDRVTITCRASQGVSSWLAWYQQKPGKAPKLLIYSARYLQSGVPSRFSGSGSGTDFTLTISSLQPEDFATYYCQQYNLYPLTFGGGTKVEIKR
notes: IgG format
In turn, B9 had a Kd of 0.209 nM, a koff of 0.000148 s⁻¹ and a kon of 705000 M⁻¹ s⁻¹.

B10: HC 1251_A06 (wt)/LC 1337_A10 (g) (antibody, human IgG1, kappa, V domains shown)
VH: QVQLVESGGGVVQPGRSLRLSCAASGFDFSSYGMHWVRQAPDKGLEWVAVIWDDGSDRYYADSVKGRFTISRDNSKNTLYLQMNSLRAEDTAVYYCARGGTRVLGAIHGTDVWGQGTTVTVSS
VL: DIQMTQSPSSVSASVGDRVTITCRASQGISSWVAWYQQKPGKAPKLLIYGSSRLQSGVPSRFSGSGSGTDFTLTISSLQPEDFATYYCQQYNTYPLTFGGGTKVEIKR
notes: IgG format
Molecule B10 returned a Kd of 0.411 nM, a koff of 0.000235 s⁻¹ and a kon of 571000 M⁻¹ s⁻¹.

B11: HC 1251_A06 (wt)/LC 1275_C10 (wt) (antibody, human IgG1, kappa)
heavy: not shown
light: MDIQMTQSPSSLSASVGDRVTITCRASQGVSSWLAWYQQKPEKAPKSLIYSARYLQSGVPSRFSGSGSGTDFTLTISSLQPEDFATYYCQQYNLYPLTFGGGTKVEIKRTVAAPSVFIFPPSDEQLKSGTASVVCLLNNFYPREAKVQWKVDNALQSGNSQESVTEQDSKDSTYSLSSTLTLSKADYEKHKVYACEVTHQGLSSPVTKSFNRGEC
notes: IgG format
With B11, the dissociation constant (Kd) turned out to be 0.245 nM, the off-rate constant (koff) worked out at 0.00016 s⁻¹ and the kon stood at 654000 M⁻¹ s⁻¹.

B12: HC 1251_A06 (wt)/LC 1275_C10 (g) (antibody, human IgG1, kappa, V domains shown)
VH: QVQLVESGGGVVQPGRSLRLSCAASGFDFSSYGMHWVRQAPDKGLEWVAVIWDDGSDRYYADSVKGRFTISRDNSKNTLYLQMNSLRAEDTAVYYCARGGTRVLGAIHGTDVWGQGTTVTVSS
VL: DIQMTQSPSSVSASVGDRVTITCRASQGVSSWLAWYQQKPGKAPKLLIYSARYLQSGVPSRFSGSGSGTDFTLTISSLQPEDFATYYCQQYNLYPLTFGGGTKVEIKR
notes: IgG format
Take B12: the dissociation constant Kd amounted to 0.348 nM, the koff was 0.000166 s⁻¹ and the kon turned out to be 478000 M⁻¹ s⁻¹.

B13: HC 1251_B08 (g)/LC 1337_A07 (wt) (antibody, human IgG1, kappa, V domains shown)
VH: QVQLVESGGGVVQPGRSLRLSCAASGFNFSDYGMHWVRQAPGKGLEWVAVIWYDGSISYYADSVKGRFTISRDNSKNTLYLQMNSLRAEDTAVYYCARGGTVEHGAVYGTDVWGQGTTVTVSS
VL: DIQMTQSPSSLSASVGDRVTITCRASQGISSWVAWYQQKPEKAPKSLIYGASRLQSGVPSRFSGSGSGTDFTLTISSLQPEDFATYYCQQYHTYPLTFGGGTKVEIKR
notes: IgG format
For B13, the Kd stood at 0.349 nM, the koff amounted to 9.23e-05 s⁻¹ and the kon amounted to 265000 M⁻¹ s⁻¹.

B14: HC 1251_A06 (g)/LC 1337_A07 (g) (antibody, human IgG1, kappa, V domains shown)
VH: QVQLVESGGGVVQPGRSLRLSCAASGFDFSSYGMHWVRQAPGKGLEWVAVIWDDGSDRYYADSVKGRFTISRDNSKNTLYLQMNSLRAEDTAVYYCARGGTRVLGAIHGTDVWGQGTTVTVSS
VL: DIQMTQSPSSVSASVGDRVTITCRASQGISSWVAWYQQKPGKAPKLLIYGASRLQSGVPSRFSGSGSGTDFTLTISSLQPEDFATYYCQQYHTYPLTFGGGTKVEIKR
notes: IgG format
In turn, B14 registered a Kd of 0.168 nM, an off-rate constant (koff) of 7.1e-05 s⁻¹ and a kon of 424000 M⁻¹ s⁻¹.

B15: HC 1251_A06 (g)/LC 1337_A10 (wt) (antibody, human IgG1, kappa, V domains shown)
VH: QVQLVESGGGVVQPGRSLRLSCAASGFDFSSYGMHWVRQAPGKGLEWVAVIWDDGSDRYYADSVKGRFTISRDNSKNTLYLQMNSLRAEDTAVYYCARGGTRVLGAIHGTDVWGQGTTVTVSS
VL: DIQMTQSPSSLSASVGDRVTITCRASQGISSWVAWYQQKPEKAPKSLIYGSSRLQSGVPSRFSGSGSGTDFTLTISSLQPEDFATYYCQQYNTYPLTFGGGTKVEIKR
notes: IgG format
With B15, the Kd came to 0.188 nM, the off-rate (koff) is 9.03e-05 s⁻¹ and the kon stood at 479000 M⁻¹ s⁻¹.

B16: HC 1251_A06 (wt)/LC 1337_A09 (wt) (antibody, human IgG1, kappa, V domains shown)
VH: QVQLVESGGGVVQPGRSLRLSCAASGFDFSSYGMHWVRQAPDKGLEWVAVIWDDGSDRYYADSVKGRFTISRDNSKNTLYLQMNSLRAEDTAVYYCARGGTRVLGAIHGTDVWGQGTTVTVSS
VL: DIQMTQSPSSLSASVGDRVTITCRASQGIGSWLAWYQQKPEKAPKSLIYAADRLQSGVPSRFSGSGSGTDFTLTISSLQPEDFATYYCQQYHTYPLTFGGGTKVEIKR
notes: IgG format
In turn, B16 had a Kd of 0.156 nM, a koff of 9.19e-05 s⁻¹ and an on-rate constant (kon) of 588000 M⁻¹ s⁻¹.

B17: HC 1251_A06 (g)/LC 1337_A09 (g) (antibody, human IgG1, kappa, V domains shown)
VH: QVQLVESGGGVVQPGRSLRLSCAASGFDFSSYGMHWVRQAPGKGLEWVAVIWDDGSDRYYADSVKGRFTISRDNSKNTLYLQMNSLRAEDTAVYYCARGGTRVLGAIHGTDVWGQGTTVTVSS
VL: DIQMTQSPSSVSASVGDRVTITCRASQGIGSWLAWYQQKPGKAPKLLIYAADRLQSGVPSRFSGSGSGTDFTLTISSLQPEDFATYYCQQYHTYPLTFGGGTKVEIKR
notes: IgG format
B17 showed a Kd of 0.131 nM, a koff of 7.26e-05 s⁻¹ and a kon of 552000 M⁻¹ s⁻¹.
